Source: paper PMC9477280 (PLoS Pathogens, 2022)

Experiments:
EPEC FliC = target: T1, EPEC FliC (Escherichia coli EPEC, likely O127:H6 …, UniProt B7USU2); assay: ELISA; dilution ELISA; purified antigen coated directly on Nunc Maxisorp wells, typically 1 μg/mL in PBS overnight at 4°C, blocked with 4% milk in PBS 0.1% Tween; thioredoxin/VHH/E-tag from 125 nM in 1:5 serial dilutions, 1 h 37°C; detected with HRP anti-E-tag; EC50 estimates (apparent affinity); Trace = EC50 >125 nM, poor but detectable; conditions: both partners purified
T1 construct: also called EPEC rFliC; recombinant FliC

EPEC flagella = EPEC flagella (Escherichia coli O127:H6 E2348/69 (EPEC), UniProt B7USU2); assay: as above; conditions: both partners purified
MC1061 /EPEC intimin = target: T2, MC1061 /EPEC intimin (Escherichia coli O127:H6, JPN15 …, UniProt P19809); assay: ELISA; dilution ELISA with intimin displayed on the surface of E. coli MC1061 as antigen; soluble thioredoxin/VHH/E-tag; EC50 estimates (apparent affinity); conditions: one partner purified
T2 construct: also called E. coli 1061/pInt (EPEC); EPEC intimin expressed on the surface of strain MC1061

[1] = target: T3, MC1061 expressing EHEC intimin (Escherichia coli O157:H7 EDL933 (EHEC), UniProt P43261); assay: as above; conditions: one partner purified
T3 construct: also called E. coli 1061/pInt (EHEC); EHEC intimin expressed on the surface of strain MC1061

EHEC intimin = target: T4, EHEC intimin (Escherichia coli O157:H7 EDL933 (EHEC), UniProt P43261); assay: ELISA; dilution ELISA; purified antigen coated directly on Nunc Maxisorp wells, typically 1 μg/mL in PBS overnight at 4°C, blocked with 4% milk in PBS 0.1% Tween; thioredoxin/VHH/E-tag from 125 nM in 1:5 serial dilutions, 1 h 37°C; detected with HRP anti-E-tag; EC50 estimates (apparent affinity); Trace = EC50 >125 nM, poor but detectable; conditions: both partners purified
T4 construct: also called recombinant intimin (EHEC)

EPEC intimin = target: T5, EPEC intimin (Escherichia coli O127:H6 E2348/69 (EPEC), UniProt P19809); assay: as above; conditions: both partners purified
T5 construct: also called recombinant intimin (EPEC)

C. rodentium intimin = C. rodentium intimin (Citrobacter rodentium DBS100, UniProt Q07591); assay: ELISA; EC50 told in footnote g of Table 1; form of the C. rodentium intimin antigen not stated

T2 sequence (P19809 42-939): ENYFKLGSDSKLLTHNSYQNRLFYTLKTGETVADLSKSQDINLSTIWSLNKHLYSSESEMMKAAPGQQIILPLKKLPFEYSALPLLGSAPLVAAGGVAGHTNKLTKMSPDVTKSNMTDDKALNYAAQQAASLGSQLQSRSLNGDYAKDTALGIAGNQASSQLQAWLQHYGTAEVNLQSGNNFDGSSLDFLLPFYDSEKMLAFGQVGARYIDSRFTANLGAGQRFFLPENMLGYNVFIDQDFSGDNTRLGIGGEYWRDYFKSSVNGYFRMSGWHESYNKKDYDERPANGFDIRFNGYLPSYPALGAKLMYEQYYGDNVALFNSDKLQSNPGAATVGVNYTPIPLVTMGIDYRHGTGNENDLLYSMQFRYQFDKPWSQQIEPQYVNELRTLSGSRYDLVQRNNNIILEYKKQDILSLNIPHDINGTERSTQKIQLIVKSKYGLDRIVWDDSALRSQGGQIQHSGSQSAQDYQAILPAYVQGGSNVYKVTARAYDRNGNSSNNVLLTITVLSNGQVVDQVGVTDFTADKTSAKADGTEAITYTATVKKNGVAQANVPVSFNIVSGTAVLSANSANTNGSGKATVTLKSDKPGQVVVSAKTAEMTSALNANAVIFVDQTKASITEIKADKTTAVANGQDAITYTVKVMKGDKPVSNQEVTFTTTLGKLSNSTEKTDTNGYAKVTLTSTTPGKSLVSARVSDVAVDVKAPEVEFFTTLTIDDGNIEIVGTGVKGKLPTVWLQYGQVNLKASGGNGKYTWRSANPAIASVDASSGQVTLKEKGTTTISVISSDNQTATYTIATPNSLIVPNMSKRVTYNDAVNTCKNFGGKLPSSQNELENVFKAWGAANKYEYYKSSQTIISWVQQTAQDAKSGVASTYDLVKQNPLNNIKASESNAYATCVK
T3 sequence (P43261 40-934): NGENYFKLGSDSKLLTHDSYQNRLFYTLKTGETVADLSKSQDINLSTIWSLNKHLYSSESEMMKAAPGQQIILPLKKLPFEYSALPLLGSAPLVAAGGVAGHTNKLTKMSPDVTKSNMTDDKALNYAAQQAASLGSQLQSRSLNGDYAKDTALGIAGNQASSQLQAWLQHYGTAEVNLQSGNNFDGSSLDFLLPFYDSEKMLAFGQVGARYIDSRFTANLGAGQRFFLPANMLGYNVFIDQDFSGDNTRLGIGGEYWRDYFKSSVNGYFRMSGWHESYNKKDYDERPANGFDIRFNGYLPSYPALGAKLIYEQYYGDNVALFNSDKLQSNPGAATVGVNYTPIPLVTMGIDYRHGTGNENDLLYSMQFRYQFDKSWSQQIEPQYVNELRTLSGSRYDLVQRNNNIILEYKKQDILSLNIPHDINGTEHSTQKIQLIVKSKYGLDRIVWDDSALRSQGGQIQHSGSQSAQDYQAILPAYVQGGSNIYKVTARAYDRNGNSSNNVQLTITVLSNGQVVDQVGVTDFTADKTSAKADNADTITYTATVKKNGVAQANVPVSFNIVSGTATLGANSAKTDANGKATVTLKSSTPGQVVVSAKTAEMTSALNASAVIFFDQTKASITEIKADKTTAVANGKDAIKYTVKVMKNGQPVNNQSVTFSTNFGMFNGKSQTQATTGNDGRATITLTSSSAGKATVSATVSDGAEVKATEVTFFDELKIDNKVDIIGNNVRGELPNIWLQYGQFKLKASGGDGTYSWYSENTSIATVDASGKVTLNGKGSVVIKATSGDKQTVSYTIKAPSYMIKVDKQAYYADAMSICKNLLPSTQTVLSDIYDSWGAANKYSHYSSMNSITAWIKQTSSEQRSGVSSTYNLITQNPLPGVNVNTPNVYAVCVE
T4 sequence (P43261 40-934): as above
T1 sequence (B7USU2 2-548): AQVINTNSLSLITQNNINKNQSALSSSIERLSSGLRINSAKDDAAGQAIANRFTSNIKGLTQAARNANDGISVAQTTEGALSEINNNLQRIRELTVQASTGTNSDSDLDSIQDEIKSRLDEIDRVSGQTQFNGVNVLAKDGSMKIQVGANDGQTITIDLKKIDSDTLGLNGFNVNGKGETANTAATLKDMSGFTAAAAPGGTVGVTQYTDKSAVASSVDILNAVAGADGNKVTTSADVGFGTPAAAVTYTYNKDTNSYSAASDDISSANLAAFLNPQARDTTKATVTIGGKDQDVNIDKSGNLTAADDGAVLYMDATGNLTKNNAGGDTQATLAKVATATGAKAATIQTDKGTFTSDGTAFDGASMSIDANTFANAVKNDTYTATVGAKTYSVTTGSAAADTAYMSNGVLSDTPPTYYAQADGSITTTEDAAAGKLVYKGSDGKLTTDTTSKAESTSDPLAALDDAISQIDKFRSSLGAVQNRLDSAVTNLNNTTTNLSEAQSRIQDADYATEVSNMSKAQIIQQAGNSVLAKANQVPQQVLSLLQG
Chain of EPEC flagella (B7USU2 2-548): as above
T5 sequence (P19809 42-939): as the sequence (P19809 42-939) above

Binder | EC50 (MC1061 /EPEC intimin) | binding result [1] | binding result (EHEC intimin) | also measured
JUV-C4 (VHH, also called αFla-2; JVE-4 (vector name); not shown: thioredoxin, N-terminal, kept; E-tag, C-terminal, kept) VHH: TGGGLVQAGGSLTLSCVASGRAVSSFAMGWFRQIPGREQRDFVAFIGDYGLTTYYANSVKGRFTISRSNAENTLYLQMNSLEFEDAAVYFCAARDAYRSGTTNPSAYDYWGQGTQVTVSS |  |  |  | EC50 (EPEC FliC): 0.3 nM; EC50 (EPEC flagella): 1 nM
JWU-D8 (VHH, also called αInt-14; JWZ-9 (vector name)) VHH: TGGGLVQPGGSLRLSCAASGFYFSGYWMHWVRQVQGQGLKWVSGINIDDTKSSYTDSVKGRFTISRDNTKNTLYLQMDSLQPEDTGVYYCARDRRAGQISGGYDPDYRGQGTQVTVSS | 0.5 nM | binds |  | 
JWU-G8 (VHH, also called αInt-17; JWZ-15 (vector name)) VHH: SGGGLVQPGGSLRLSCATSGFYFAGYWMHWVRQVPGQGLEWVSGIDLGSTMLNYRDSVKGRFSISRDNAKNTVYLQMHSLKPEDTALYFCARDRRAGATSGGYDPDVRGQGTQVTVSS | 0.5 nM | binds | no binding (tested: 125 nM (highest VHH concentration)) | 
JXN-E2 (VHH, also called JXS-2 (vector name); not shown: thioredoxin, N-terminal, kept; E-tag, C-terminal, kept) VHH: TGGLVPPGGSLQLSCTSSGFFLDYLGVAWFRQAPGNEREGVSCIDYTGDNIAYASSMKGRATISRDKDANTVTLEMNGLKPEDTAVYYCAAHRSATTYADGKYRCPLENEYDYWGQGIQVTVSS |  |  | no binding (tested: 125 nM (highest VHH concentration)) | binding result (EPEC intimin): no binding (tested: 125 nM (highest VHH concentration)); EC50 (C. rodentium intimin): ~0.5 nM; binding result (MC1061 /EPEC intimin): no binding (tested: 125 nM (highest VHH concentration))
